According to US20180344812A1 (Scripps Research, published 2018):
Like-named read-outs stand apart in the source and are kept apart here. Bridges are numbered along the chain shown (N, C = ends). Where no end group is shown, it is not given here. [ ]: non-standard residue; d: D form. L1 = C4 bis(bromoacetamide) staple without lipid; L3 = myristic acid-PEG-PEG-ornithine staple; L5 = C18 diacid-Lys-PEG2-ornithine staple; L2 = myristic acid-PEG-ornithine staple; L6 = made as L5 but on Rink amide resin

T1: human Glucagon-like peptide 2 receptor (GLP-2R) (human, UniProt O95838 1-553)
T1 sequence (looked up): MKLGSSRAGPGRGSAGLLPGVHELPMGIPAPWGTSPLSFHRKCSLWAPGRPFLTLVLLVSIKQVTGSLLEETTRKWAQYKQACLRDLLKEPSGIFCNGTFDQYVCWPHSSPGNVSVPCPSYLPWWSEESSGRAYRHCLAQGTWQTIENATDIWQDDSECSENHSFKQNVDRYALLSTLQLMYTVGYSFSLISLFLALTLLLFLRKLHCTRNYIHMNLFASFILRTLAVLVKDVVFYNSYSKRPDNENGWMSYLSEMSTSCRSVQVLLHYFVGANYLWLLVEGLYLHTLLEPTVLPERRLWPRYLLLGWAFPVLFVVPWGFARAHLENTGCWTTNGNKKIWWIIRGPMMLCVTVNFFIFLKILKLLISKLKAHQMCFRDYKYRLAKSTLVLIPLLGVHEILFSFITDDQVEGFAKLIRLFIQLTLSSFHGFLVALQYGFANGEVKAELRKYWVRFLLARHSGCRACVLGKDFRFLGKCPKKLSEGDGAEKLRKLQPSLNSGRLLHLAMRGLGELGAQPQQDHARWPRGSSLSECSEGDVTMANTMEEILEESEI

T2: human Glucose-dependent insulinotropic polypeptide receptor (GIPR) (human, UniProt P48546 22-466)
T2 sequence (looked up): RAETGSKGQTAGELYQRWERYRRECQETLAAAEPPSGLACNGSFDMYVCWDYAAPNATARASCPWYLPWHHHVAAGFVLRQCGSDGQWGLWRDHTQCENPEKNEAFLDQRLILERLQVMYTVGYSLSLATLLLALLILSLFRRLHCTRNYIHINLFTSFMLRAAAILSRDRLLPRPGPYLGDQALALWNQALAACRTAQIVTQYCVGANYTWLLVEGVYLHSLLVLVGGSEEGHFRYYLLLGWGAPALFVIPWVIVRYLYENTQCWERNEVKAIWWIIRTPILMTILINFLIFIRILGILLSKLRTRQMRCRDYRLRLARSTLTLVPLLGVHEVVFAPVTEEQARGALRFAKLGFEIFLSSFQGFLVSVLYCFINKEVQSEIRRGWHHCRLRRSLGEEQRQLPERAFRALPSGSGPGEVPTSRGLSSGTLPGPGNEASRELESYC


Legend:
Test in all cases: cell-based or functional assay
[1] = molecular target: T1, human Glucagon-like peptide 2 receptor …
[2] = molecular target: T2, human Glucose-dependent insulinotropic …
[3] = molecular target: T3, human glucagon-like peptide 1 receptor (GLP-1R) (human, UniProt P43220 24-463)
[4] = molecular target: T2, human Glucose-dependent insulinotropic …; remark: listed apart in the source
[5] = molecular target: T3, human glucagon-like peptide 1 receptor …; remark: listed apart in the source
[6] = molecular target: human glucagon receptor (GCGR) (human, UniProt P47871 26-477)
human glucagon receptor (GCGR), sequence (P47871 26-477): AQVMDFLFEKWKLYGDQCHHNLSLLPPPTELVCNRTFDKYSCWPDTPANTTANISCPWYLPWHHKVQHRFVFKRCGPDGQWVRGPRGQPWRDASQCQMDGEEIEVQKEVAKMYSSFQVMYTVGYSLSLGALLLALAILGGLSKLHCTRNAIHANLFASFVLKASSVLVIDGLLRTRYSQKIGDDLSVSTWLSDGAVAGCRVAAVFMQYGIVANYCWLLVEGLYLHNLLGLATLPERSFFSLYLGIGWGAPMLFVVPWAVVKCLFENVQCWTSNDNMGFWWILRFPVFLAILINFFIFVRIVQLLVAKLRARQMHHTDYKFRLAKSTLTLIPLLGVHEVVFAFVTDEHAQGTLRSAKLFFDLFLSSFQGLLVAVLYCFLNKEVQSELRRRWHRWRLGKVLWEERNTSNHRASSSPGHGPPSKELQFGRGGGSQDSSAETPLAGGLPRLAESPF

Binder | EC50, CRE-luciferase reporter in HEK293-GLP-2R-CRE cells [1] [nM] | also measured
HGDGSFSDEMNTILDNCAARDFICWLIQTKITDPSSGAPPPS (linker 17-24 via L1) [mTA 59: GLP-2 (H) and L1] | 0.064 | –
HGDGSFSDCMNTILDCLAARDFINWLIQTKITDPSSGAPPPS (linker 9-16 via L5; also: staple L5 carries C18 diacid-Lys-PEG2-ornithine lipid) [mTA 67: GLP-2 (I) and L5] | 3.1 | –
HGDGSFSDEMNTILDNCAARDFICWLIQTKITDPSSGAPPPS (linker 17-24 via L3; also: staple L3 carries myristic acid-PEG-PEG-ornithine lipid) [mTA 61: GLP-2 (H) and L3] | 0.068 | –
HGDGSFSDEMNTILDNCAARDFICWLIQTKITDPSSGAPPPS (linker 17-24 via L6) [mTA 64: GLP-2 (H) and L6] | 0.7 | –
HGDGSFSDEMCTILDNLCARDFINWLIQTKITDPSSGAPPPS (linker 11-18 via L3; also: staple L3 carries myristic acid-PEG-PEG-ornithine lipid) [mTA 68: GLP-2 (J) and L3] | 0.028 | –
HGDGSFSDEMNTILDNCAARDFICWLIQTKITDPSSGAPPPS (linker 17-24 via L2; also: staple L2 carries myristic acid-PEG-ornithine lipid) [mTA 60: GLP-2 (H) and L2] | 0.068 | –
HGDGSFSDEMNTILDNCAARDFICWLIQTKITDPSSGAPPPS (linker 17-24 via L5; also: staple L5 carries C18 diacid-Lys-PEG2-ornithine lipid) [mTA 63: GLP-2 (H) and L5] | 2.66 | –
HGDGSFSDCMNTILDCLAARDFINWLIQTKITDPSSGAPPPS (linker 9-16 via L3; also: staple L3 carries myristic acid-PEG-PEG-ornithine lipid) [mTA 65: GLP-2 (I) and L3] | 0.06 | –
HGDGSFSDEMCTILDNLCARDFINWLIQTKITDPSSGAPPPS (linker 11-18 via L5; also: staple L5 carries C18 diacid-Lys-PEG2-ornithine lipid) [mTA 70: GLP-2 (J) and L5] | 8.8 | –
Y[dA]EGTFTSDYSIYLDKCAAKEFVCWLLAGGPSSGAPPPSK (linker 17-24 via L3) [mTA 41: GLP-1/GIP (A) and L3] | – | EC50, CRE-luciferase reporter in HEK293-GIPR-CRE cells [2]: 0.06 nM; EC50, CRE-luciferase reporter in HEK293-GLP-1R-CRE cells [3]: 0.02 nM
Y[dA]EGTFISDYSKYLDECAAKEFICWLMNTKRNRNNIA (linker 17-24 via L1) [mTA 44: GLP-1/GIP/Glucagon (A) and L1] | – | EC50, CRE-luciferase reporter in HEK293-GIPR-CRE cells [4]: 0.04 nM; EC50, CRE-luciferase reporter in HEK293-GLP-1R-CRE cells [5]: 9.7 nM; EC50, CRE-luciferase reporter in HEK293-GCGR-CRE cells [6]: 1.6 nM
Y[dA]EGTFTSDYSIYLDKCAAKEFVCWLLAGGPSSGAPPPSK (linker 17-24 via L1) [mTA 40: GLP-1/GIP (A) and L1] | – | EC50, CRE-luciferase reporter in HEK293-GIPR-CRE cells [2]: 0.02 nM; EC50, CRE-luciferase reporter in HEK293-GLP-1R-CRE cells [3]: 0.02 nM
Y[dA]EGTFTSDYSIYLDKCAAKEFVCWLLAGGPSSGAPPPSK (linker 17-24 via L5) [mTA 43: GLP-1/GIP (A) and L5] | – | EC50, CRE-luciferase reporter in HEK293-GIPR-CRE cells [2]: 1.1 nM; EC50, CRE-luciferase reporter in HEK293-GLP-1R-CRE cells [3]: 0.5 nM
HGDGSFSDEMCTILDNLCARDFINWLIQTKITD (linker 11-18 via L1) [mTA 57: GLP-2 (G) and L1] | 0.046 | –
HGDGSFSDEMCTILDNLCARDFINWLIQTKITD (linker 11-18 via L5) [mTA 58: GLP-2 (G) and L5] | 7.98 | –
HGDGSFSCEMNTILCALAARDFINWLIQTKITD (linker 8-15 via L1) [mTA 53: GLP-2 (D) and L1] | 14.3 | –
HGDGSFSDEMNTILDALAARCFINWLICTKITD (linker 21-28 via L1) [mTA 54: GLP-2 (E) and L1] | 0.13 | –
HGDGSFSDCMNTILDCLAARDFINWLIQTKITD (linker 9-16 via L5) [mTA 56: GLP-2 (F) and L5] | 0.77 | –
HGDGSFSDCMNTILDCLAARDFINWLIQTKITD (linker 9-16 via L1) [mTA 55: GLP-2 (F) and L1] | 0.064 | –
